Source: patent US11267868 (dated 2022)
Where a chain is given by its changes, count along the chain named.

T1: FcgRIIaR (human, UniProt P12318)
T1 chain: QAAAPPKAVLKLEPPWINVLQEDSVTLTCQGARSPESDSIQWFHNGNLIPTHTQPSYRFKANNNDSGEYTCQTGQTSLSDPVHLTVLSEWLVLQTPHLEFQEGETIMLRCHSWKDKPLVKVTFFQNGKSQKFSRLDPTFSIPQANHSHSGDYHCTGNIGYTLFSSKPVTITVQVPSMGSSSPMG

T2: FcgRIIaH (human, UniProt P12318)
T2 chain: T1 chain with R134H

T3: FcgRIa (human, UniProt P12314)
T3 chain: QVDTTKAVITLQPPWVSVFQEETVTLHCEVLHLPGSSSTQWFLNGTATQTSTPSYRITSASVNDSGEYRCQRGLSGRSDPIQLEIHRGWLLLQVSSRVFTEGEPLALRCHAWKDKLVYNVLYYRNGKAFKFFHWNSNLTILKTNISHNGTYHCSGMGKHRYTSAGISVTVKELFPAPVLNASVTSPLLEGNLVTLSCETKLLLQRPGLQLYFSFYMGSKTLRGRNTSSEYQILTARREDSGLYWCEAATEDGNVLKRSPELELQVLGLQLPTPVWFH

T4: FcgRIIb (human, UniProt P31994)
T4 chain: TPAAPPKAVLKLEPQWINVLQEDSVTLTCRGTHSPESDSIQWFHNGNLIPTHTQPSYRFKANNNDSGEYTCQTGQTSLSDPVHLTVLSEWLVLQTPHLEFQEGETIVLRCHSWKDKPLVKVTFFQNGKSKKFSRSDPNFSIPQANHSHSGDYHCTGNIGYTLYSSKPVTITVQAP

T5: mFcgRIV (mouse, UniProt A0A0B4J1G0)
T5 chain: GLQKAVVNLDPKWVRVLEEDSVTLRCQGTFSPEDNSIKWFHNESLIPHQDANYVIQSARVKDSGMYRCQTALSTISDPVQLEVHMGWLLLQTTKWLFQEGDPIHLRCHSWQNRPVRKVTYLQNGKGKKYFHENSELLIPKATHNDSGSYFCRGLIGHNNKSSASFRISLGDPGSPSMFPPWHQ

T6: mFcgRI (mouse, UniProt P26151)
T6 chain: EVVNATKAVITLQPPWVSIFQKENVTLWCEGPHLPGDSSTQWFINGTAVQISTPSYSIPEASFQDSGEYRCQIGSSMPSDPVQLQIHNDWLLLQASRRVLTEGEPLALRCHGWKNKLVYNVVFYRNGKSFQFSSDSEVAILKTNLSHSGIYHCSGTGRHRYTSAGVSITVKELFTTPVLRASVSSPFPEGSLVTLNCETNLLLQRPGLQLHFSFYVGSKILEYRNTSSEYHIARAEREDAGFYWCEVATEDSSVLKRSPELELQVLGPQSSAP

B1: IL6R-P694/IL6R-L (antibody)
chain 1: QVQLQESGPGLVKPSETLSLTCAVSGHSISHDHAWSWVRQPPGEGLEWIGFISYSGITNYNPSLQGRVTISRDNSKNTLYLQMNSLRAEDTAVYYCARSLARTTAMDYWGEGTLVTVSSASTKGPSVFPLAPSSKSTSGGTAALGCLVKDYFPEPVTVSWNSGALTSGVHTFPAVLQSSGLYSLSSVVTVPSSSLGTQTYICNVNHKPSNTKVDKKVEPKSCDKTHTCPPCPAPDLLGGDSVFLFPPKPKDTLMISRTPEVTCVVIDVREEDGEVKFNWYVDGVEVHNAKTKPREEQENSTYRVVSVLTVLHQDWLNGKEYKCKVSNKALPAPIEKTISKAKGQPREPQVYTLPPSRDELTKNQVSLTCLVKGFYPSDIAVEWESNGQPENNYKTTPPVLDSDGSFFLYSKLTVDKSRWQQGNVFSCSVMHEALHNHYTQKSLSLSP
chain 2: not shown
B2: IL6R-P730/IL6R-L (antibody)
chain 1: B1 chain 1 with G239Q, E270P
chain 2: not shown
B3: IL6R-P712/IL6R-L (antibody)
chain 1: B1 chain 1 with E270P
chain 2: not shown
B4: IL6R-P702/IL6R-L (antibody)
chain 1: B1 chain 1 with F243M, E298Y
chain 2: not shown
B5: IL6R-P699/IL6R-L (antibody)
chain 1: B1 chain 1 with E270P, E298Y
chain 2: not shown
B6: IL6R-P631/IL6R-L (antibody)
chain 1: B1 chain 1 with D267N, R269A, E298Y
chain 2: not shown
B7: IL6R-P665/IL6R-L (antibody)
chain 1: B1 chain 1 with G239D, R269A, E298D, N299A, A332R, P398M
chain 2: not shown
B8: IL6R-P629/IL6R-L (antibody)
chain 1: B1 chain 1 with G239K, R269A, E298Y
chain 2: not shown
B9: IL6R-P625/IL6R-L (antibody)
chain 1: B1 chain 1 with L236K, R269A, E298Y
chain 2: not shown
B10: IL6R-P636/IL6R-L (antibody)
chain 1: B1 chain 1 with E298Y
chain 2: not shown
B11: IL6R-P626/IL6R-L (antibody)
chain 1: B1 chain 1 with L236R, R269A, E298Y
chain 2: not shown
B12: IL6R-P652/IL6R-L (antibody)
chain 1: B1 chain 1 with G239D, R269Y, E298D, A332R, P398M
chain 2: not shown
B13: IL6R-P577/IL6R-L (antibody)
chain 1: B1 chain 1 with G239D, R269A, E298D, A332R, P398M
chain 2: not shown
B14: IL6R-P734/IL6R-L (antibody)
chain 1: B1 chain 1 with D235E, L237F, G239Q, F243M, I266V, R269S, E270H, G273P, S326H, A332H
chain 2: not shown
B15: IL6R-P733/IL6R-L (antibody)
chain 1: B1 chain 1 with D235E, L237F, G239Q, F243M, I266V, R269S, E270P, G273P, S326H
chain 2: not shown
B16: IL6R-P653/IL6R-L (antibody)
chain 1: B1 chain 1 with D235E, F243M, I266V, R269S, E270P, G273P
chain 2: not shown
B17: IL6R-P661/IL6R-L (antibody)
chain 1: B1 chain 1 with D235E, I266V, R269S, E270H, G273P, E298Y, S300A, A332H
chain 2: not shown
B18: IL6R-P727/IL6R-L (antibody)
chain 1: B1 chain 1 with D235E, G239Q, F243M, I266V, R269S, E270P, G273P, A332H
chain 2: not shown
B19: VH3/L(WT)-mIgG1 (antibody)
chain 1: QVQLQESGPGLVKPSETLSLTCAVSGHSISHDHAWSWVRQPPGEGLEWIGFISYSGITNYNPSLQGRVTISRDNSKNTLYLQMNSLRAEDTAVYYCARSLARTTAMDYWGEGTLVTVSSAKTTPPSVYPLAPGSAAQTNSMVTLGCLVKGYFPEPVTVTWNSGSLSSGVHTFPAVLQSDLYTLSSSVTVPSSTWPSETVTCNVAHPASSTKVDKKIVPRDCGCKPCICTVPEVSSVFIFPPKPKDVLTITLTPKVTCVVVDISKDDPEVQFSWFVDDVEVHTAQTQPREEQFNSTFRSVSELPIMHQDWLNGKEFKCRVNSAAFPAPIEKTISKTKGRPKAPQVYTIPPPKEQMAKDKVSLTCMITDFFPEDITVEWQWNGQPAENYKNTQPIMDTDGSYFVYSKLNVQKSNWEAGNTFTCSVLHEGLHNHHTEKSLSHSPGK
chain 2: not shown

Molecular target: T1, FcgRIIaR
Experiment: SPR

Point of comparison: B5, Kd 57 µM. Against it:
- B1 — within 1.5-fold, 61 µM
- B2 — 1.7-fold higher, 95 µM
- B3 — within 1.5-fold, 71 µM
- B4 — within 1.5-fold, 54 µM

Molecular target: T2, FcgRIIaH
Experiment: SPR

Point of comparison: B12, Kd 170 µM. Against it:
- B6 — 1.8-fold lower, 96 µM
- B7 — 2.6-fold higher, 450 µM
- B8 — 1.7-fold lower, 100 µM
- B9 — within 1.5-fold, 180 µM
- B10 — the same, 170 µM
- B11 — within 1.5-fold, 200 µM

Molecular target: T3, FcgRIa
Experiment: SPR

Point of comparison: B6, Kd 11 nM. Against it:
- B7 — 170-fold higher, 1900 nM
- B8 — 3.3-fold lower, 3.3 nM
- B9 — 45-fold higher, 500 nM
- B10 — 42-fold higher, 460 nM
- B11 — 67-fold higher, 740 nM
- B12 — 65-fold higher, 720 nM

Molecular target: T4, FcgRIIb
Experiment: SPR

Point of comparison: B10, Kd 2900 nM. Against it:
- B6 — 1.5-fold higher, 4400 nM
- B7 — within 1.5-fold, 3200 nM
- B8 — 4.5-fold lower, 650 nM
- B9 — 1.7-fold lower, 1700 nM
- B11 — within 1.5-fold, 2700 nM
- B12 — 2.4-fold lower, 1200 nM

Molecular target: T1, FcgRIIaR
Experiment: SPR
Remark: another data set of the same source

B13 showed a Kd of 44 nM.

These binders were tested against T7, FcgRIIIaV (human, UniProt P08637) (assay: SPR).
T7 sequence (P08637 17-208 F176V): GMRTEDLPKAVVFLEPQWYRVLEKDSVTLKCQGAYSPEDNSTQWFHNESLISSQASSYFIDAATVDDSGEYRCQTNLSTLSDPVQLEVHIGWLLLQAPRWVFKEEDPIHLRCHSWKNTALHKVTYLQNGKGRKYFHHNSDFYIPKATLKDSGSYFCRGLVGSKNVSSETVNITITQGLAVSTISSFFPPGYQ

In the case of B13, the Kd is reported as 12 µM.

Molecular target: T7, FcgRIIIaV
Experiment: SPR
Remark: another data set of the same source

Point of comparison: B18, Kd 66 µM. Against it:
- B14 — 1.5-fold higher, 100 µM
- B15 — within 1.5-fold, 77 µM
- B16 — within 1.5-fold, 50 µM
- B17 — 2.3-fold lower, 29 µM

Molecular target: T1, FcgRIIaR
Experiment: SPR
Remark: another data set of the same source

Point of comparison: B14, Kd 68 µM. Against it:
- B15 — 1.9-fold higher, 130 µM
- B16 — within 1.5-fold, 51 µM
- B17 — 1.7-fold lower, 41 µM
- B18 — within 1.5-fold, 100 µM

Molecular target: T2, FcgRIIaH
Experiment: SPR
Remark: another data set of the same source

Point of comparison: B4, Kd 170 µM. Against it:
- B1 — within 1.5-fold, 200 µM
- B2 — 1.8-fold higher, 310 µM
- B3 — 1.8-fold higher, 300 µM
- B5 — within 1.5-fold, 250 µM

Molecular target: T1, FcgRIIaR
Experiment: SPR
Remark: another data set of the same source

Point of comparison: B6, Kd 26 µM. Against it:
- B7 — 1.9-fold higher, 49 µM
- B8 — within 1.5-fold, 27 µM
- B9 — within 1.5-fold, 24 µM
- B10 — 2.1-fold higher, 54 µM
- B11 — within 1.5-fold, 31 µM
- B12 — within 1.5-fold, 24 µM

Molecular target: T3, FcgRIa
Experiment: SPR
Remark: another data set of the same source

Point of comparison: B1, Kd 410 nM. Against it:
- B2 — 3.7-fold higher, 1500 nM
- B3 — 1.7-fold higher, 680 nM
- B4 — within 1.5-fold, 570 nM
- B5 — 1.7-fold higher, 690 nM

Molecular target: T7, FcgRIIIaV
Experiment: SPR
Remark: another data set of the same source

Point of comparison: B2, Kd 73 µM. Against it:
- B1 — 1.6-fold lower, 47 µM
- B3 — within 1.5-fold, 82 µM
- B4 — 1.7-fold lower, 44 µM
- B5 — within 1.5-fold, 65 µM

Molecular target: T2, FcgRIIaH
Experiment: SPR
Remark: another data set of the same source

B13 showed a Kd of 1000 nM.

Molecular target: T4, FcgRIIb
Experiment: SPR
Remark: another data set of the same source

Point of comparison: B2, Kd 10 µM. Against it:
- B1 — 3.6-fold lower, 2.8 µM
- B3 — 2.9-fold lower, 3.4 µM
- B4 — 2.5-fold lower, 4 µM
- B5 — 2.4-fold lower, 4.1 µM

Molecular target: T4, FcgRIIb
Experiment: SPR
Remark: another data set of the same source

In the case of B13, the Kd is reported as 1.2 nM.

Molecular target: T5, mFcgRIV
Experiment: SPR

B19: no binding.

Molecular target: T2, FcgRIIaH
Experiment: SPR
Remark: another data set of the same source

Point of comparison: B15, Kd 180 µM. Against it:
- B14 — 2.1-fold lower, 84 µM
- B16 — 1.6-fold lower, 110 µM
- B17 — 1.9-fold lower, 94 µM
- B18 — within 1.5-fold, 150 µM

Molecular target: T4, FcgRIIb
Experiment: SPR
Remark: another data set of the same source

Point of comparison: B18, Kd 4.8 µM. Against it:
- B14 — 1.9-fold lower, 2.5 µM
- B15 — within 1.5-fold, 4.7 µM
- B16 — within 1.5-fold, 3.5 µM
- B17 — within 1.5-fold, 4 µM

Molecular target: T3, FcgRIa
Experiment: SPR
Remark: another data set of the same source

Point of comparison: B18, Kd 230 nM. Against it:
- B14 — within 1.5-fold, 220 nM
- B15 — 11-fold higher, 2500 nM
- B16 — 13-fold lower, 18 nM
- B17 — 23-fold lower, 10 nM

Molecular target: T7, FcgRIIIaV
Experiment: SPR
Remark: another data set of the same source

Point of comparison: B10, Kd 45 µM. Against it:
- B6 — within 1.5-fold, 47 µM
- B7 — within 1.5-fold, 67 µM
- B8 — within 1.5-fold, 47 µM
- B9 — within 1.5-fold, 66 µM
- B11 — 1.7-fold higher, 75 µM
- B12 — 1.6-fold higher, 72 µM

Molecular target: T6, mFcgRI
Experiment: SPR

B19: no binding.
